Measured values as given in PMC8683085, “Serine ADP-ribosylation marks nucleosomes for ALC1-dependent chromatin remodeling” (eLife, 2021).

B1: FLAG-HPF1 (amino acids 27-346) (natural protein)
chain: KFCEADVSSDLRKEVENHYKLSLPEDFYHFWKFCEELDPEKPSDSLSASLGLQLVGPYDILAGKHKTKKKSTGLNFNLHWRFYYDPPEFQTIIIGDNKTQYHMGYFRDSPDEFPVYVGINEAKKNCIIVPNGDNVFAAVKLFLTKKLREITDKKKINLLKNIDEKLTEAARELGYSLEQRTVKMKQRDKKVVTKTFHGAGLVVPVDKNDVGYRELPETDADLKRICKTIVEAASDEERLKAFAPIQEMMTFVQFANDECDYGMGLELGMDLFCYGSHYFHKVAGQLLPLAYNLLKRNLFAEIIEEHLANRSQENIDQLAA
B2: ALC1 (full-length, 6xHis-1xFLAG-ALC1), Q86WJ1 1-897 (enzyme)
chain: MERAGATSRGGQAPGFLLRLHTEGRAEAARVQEQDLRQWGLTGIHLRSYQLEGVNWLAQRFHCQNGCILGDEMGLGKTCQTIALFIYLAGRLNDEGPFLILCPLSVLSNWKEEMQRFAPGLSCVTYAGDKEERACLQQDLKQESRFHVLLTTYEICLKDASFLKSFPWSVLVVDEAHRLKNQSSLLHKTLSEFSVVFSLLLTGTPIQNSLQELYSLLSFVEPDLFSKEEVGDFIQRYQDIEKESESASELHKLLQPFLLRRVKAEVATELPKKTEVVIYHGMSALQKKYYKAILMKDLDAFENETAKKVKLQNILSQLRKCVDHPYLFDGVEPEPFEVGDHLTEASGKLHLLDKLLAFLYSGGHRVLLFSQMTQMLDILQDYMDYRGYSYERVDGSVRGEERHLAIKNFGQQPIFVFLLSTRAGGVGMNLTAADTVIFVDSDFNPQNDLQAAARAHRIGQNKSVKVIRLIGRDTVEEIVYRKAASKLQLTNMIIEGGHFTLGAQKPAADADLQLSEILKFGLDKLLASEGSTMDEIDLESILGETKDGQWVSDALPAAEGGSRDQEEGKNHMYLFEGKDYSKEPSKEDRKSFEQLVNLQKTLLEKASQEGRSLRNKGSVLIPGLVEGSTKRKRVLSPEELEDRQKKRQEAAAKRRRLIEEKKRQKEEAEHKKKMAWWESNNYQSFCLPSEESEPEDLENGEESSAELDYQDPDATSLKYVSGDVTHPQAGAEDALIVHCVDDSGHWGRGGLFTALEKRSAEPRKIYELAGKMKDLSLGGVLLFPVDDKESRNKGQDLLALIVAQHRDRSNVLSGIKMAALEEGLKKIFLAAKKKKASVHLPRIGHATKGFNWYGTERLIRKHLAARGIPTYIYYFPRSKSAVLHSQSSSSSSRQLVP
modifications: here or on the partner: mono-ADP-ribose on S6

Tests used:
[1] = target: PARP1 (full-length, N-terminal 6xHis-tag) (UniProt P09874)
Sequence of PARP1 (full-length, N-terminal 6xHis-tag) (P09874 whole entry): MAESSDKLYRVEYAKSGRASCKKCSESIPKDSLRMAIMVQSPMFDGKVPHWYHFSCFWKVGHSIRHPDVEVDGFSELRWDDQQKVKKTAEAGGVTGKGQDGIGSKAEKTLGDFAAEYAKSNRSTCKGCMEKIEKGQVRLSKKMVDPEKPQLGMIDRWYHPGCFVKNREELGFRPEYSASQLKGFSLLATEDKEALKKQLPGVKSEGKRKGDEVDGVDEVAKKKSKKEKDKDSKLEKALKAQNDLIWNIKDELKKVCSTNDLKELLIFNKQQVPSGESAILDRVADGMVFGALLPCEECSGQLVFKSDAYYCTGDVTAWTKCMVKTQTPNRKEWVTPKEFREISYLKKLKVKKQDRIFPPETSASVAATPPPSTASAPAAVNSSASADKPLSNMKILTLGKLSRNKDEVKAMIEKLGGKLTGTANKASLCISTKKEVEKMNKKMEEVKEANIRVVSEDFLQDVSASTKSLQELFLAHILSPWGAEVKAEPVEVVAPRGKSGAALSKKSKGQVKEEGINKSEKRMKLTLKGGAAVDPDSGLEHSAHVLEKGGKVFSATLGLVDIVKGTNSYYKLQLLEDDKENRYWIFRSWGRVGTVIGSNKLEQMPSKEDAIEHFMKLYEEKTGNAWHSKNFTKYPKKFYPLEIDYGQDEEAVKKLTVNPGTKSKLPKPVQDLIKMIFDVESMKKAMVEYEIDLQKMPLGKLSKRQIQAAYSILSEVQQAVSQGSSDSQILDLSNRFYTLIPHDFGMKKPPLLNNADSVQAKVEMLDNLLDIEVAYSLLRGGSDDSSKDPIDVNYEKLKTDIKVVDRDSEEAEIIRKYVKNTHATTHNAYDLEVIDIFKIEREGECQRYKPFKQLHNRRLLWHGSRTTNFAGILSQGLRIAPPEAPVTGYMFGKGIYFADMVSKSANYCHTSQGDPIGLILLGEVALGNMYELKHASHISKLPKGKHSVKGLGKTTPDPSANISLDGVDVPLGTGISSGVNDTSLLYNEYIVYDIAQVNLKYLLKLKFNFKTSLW

[2] = target: PARP1 (full-length, N-terminal 6xHis-tag) (UniProt P09874); remark: listed apart in the source
[3] = target: H2BS6ADPr1 nucleosome, P68431

| Binder | inhibition of PARP1-catalyzed ADP-ribose polymerization from the H3S10ADPr1 peptide (RP-HPLC); HPF1 concentration at 50% inhibition [1] | share of mono-ADP-ribosylated H3 (1-20) peptide among the products of the PARP1 ADPr reaction (RP-HPLC), HPF1 from 5 μM to 100 μM [2] | ALC1 nucleosome remodeling rate constant (REA assay) [3] |
| --- | --- | --- | --- |
| B1 | 14 µM | 94% |  |
| B2 |  |  | < 0.0003 min⁻¹ |
